The test addresses T1, GST-DDRM1 (Arabidopsis thaliana, UniProt Q9ZW89 1-453).
T1 sequence (looked up): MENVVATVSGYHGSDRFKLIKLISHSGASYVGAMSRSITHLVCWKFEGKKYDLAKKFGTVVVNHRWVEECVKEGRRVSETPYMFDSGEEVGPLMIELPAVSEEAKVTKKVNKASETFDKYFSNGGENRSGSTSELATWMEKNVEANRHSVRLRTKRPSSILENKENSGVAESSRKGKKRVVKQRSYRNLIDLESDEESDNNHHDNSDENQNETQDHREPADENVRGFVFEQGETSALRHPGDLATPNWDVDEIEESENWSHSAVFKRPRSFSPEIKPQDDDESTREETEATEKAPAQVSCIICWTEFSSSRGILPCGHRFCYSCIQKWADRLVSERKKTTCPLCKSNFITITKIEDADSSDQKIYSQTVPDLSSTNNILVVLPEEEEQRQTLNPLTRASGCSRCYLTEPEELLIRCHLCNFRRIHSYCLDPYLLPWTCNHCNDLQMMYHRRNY
Put plainly: pull-down.

B1: MBP-SOG1 (natural protein, Arabidopsis thaliana, UniProt Q6NQK2 1-449, looked up)
chain: MAGRSWLIDSNRIATKIMSASASSDPRQVVWKSNPSRHCPKCQHVIDNSDVVDDWPGLPRGVKFDPSDPEIIWHLLAKSGLSGLSSHPFIDEFIPTVNQDDGICYTHPKNLPGVKSDGTVSHFFHKAIKAYSTGTRKRRKIHDDDFGDVRWHKTGRTKPVVLDGVQRGCKKIMVLYGGKAVKTNWVMHQYHLGIEEDEKEGDYVVSKIFYQQPQQLVVKRGDKAEQEVSEDIFAAVTPTADPVTPKLATPEPRNAVRICSDSHIASDYVTPSDYVSAHEVSLAETSEVMCMEDEVQSIQPNHERPSSGPELEHGLENGAKEMLDDKEEQEKDRDNENQGEEDPTWFDSGSQFILNSQQLVEALSLCDDLLGSQDREENTNSGSLKDKQPCIADYAHLGPEDFKRDLEECQKIVLDPSNIELDTPPEFRLSQLEFGSQDSFLAWGTGKTD
For B1, the binding result is given as “binds”.

The values are drawn from publication PMC9169791 (Proceedings of the National Academy of Sciences of the …, 2022).
